This note sets out measurements from US20210130453A1 (AstraZeneca / MedImmune, published 2021).

B1: human LIF (source not stated) (ligand)
chain: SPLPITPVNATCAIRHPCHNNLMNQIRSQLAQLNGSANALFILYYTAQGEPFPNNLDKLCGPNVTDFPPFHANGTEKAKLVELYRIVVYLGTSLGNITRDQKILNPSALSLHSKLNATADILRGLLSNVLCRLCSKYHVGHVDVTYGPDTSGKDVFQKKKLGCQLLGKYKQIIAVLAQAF
notes: also called hLIF; endogenous LIF of U-251 cells

Test [1] has as its target T1, recombinant human gp130 (human, UniProt P40189 23-619, limits assumed).
T1 sequence (looked up): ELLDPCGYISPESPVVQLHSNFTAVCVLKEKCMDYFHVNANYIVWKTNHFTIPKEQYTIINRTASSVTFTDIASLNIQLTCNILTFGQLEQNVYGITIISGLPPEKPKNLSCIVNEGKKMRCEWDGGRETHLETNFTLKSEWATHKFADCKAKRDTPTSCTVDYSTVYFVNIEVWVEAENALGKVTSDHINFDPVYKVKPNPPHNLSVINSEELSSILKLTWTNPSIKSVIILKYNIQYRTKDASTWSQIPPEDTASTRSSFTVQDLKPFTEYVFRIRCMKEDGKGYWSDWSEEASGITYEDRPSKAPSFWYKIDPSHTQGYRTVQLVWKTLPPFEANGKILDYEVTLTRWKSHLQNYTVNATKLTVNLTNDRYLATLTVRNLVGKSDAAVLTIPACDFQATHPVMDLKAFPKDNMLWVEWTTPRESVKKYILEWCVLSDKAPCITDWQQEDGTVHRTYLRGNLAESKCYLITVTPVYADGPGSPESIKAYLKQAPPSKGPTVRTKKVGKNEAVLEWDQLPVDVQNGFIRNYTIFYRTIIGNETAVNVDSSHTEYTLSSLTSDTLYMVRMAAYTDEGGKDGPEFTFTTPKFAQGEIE
Kind of test: ELISA: LIF pre-incubated with B09, added to a plate coated with gp130, detected through the antibody with peroxidase anti-rat IgG.

The target in test [2] is T2, recombinant human LIFR (human, UniProt P42702 45-833, limits assumed).
T2 construct: also called hLIFR
T2 sequence (looked up): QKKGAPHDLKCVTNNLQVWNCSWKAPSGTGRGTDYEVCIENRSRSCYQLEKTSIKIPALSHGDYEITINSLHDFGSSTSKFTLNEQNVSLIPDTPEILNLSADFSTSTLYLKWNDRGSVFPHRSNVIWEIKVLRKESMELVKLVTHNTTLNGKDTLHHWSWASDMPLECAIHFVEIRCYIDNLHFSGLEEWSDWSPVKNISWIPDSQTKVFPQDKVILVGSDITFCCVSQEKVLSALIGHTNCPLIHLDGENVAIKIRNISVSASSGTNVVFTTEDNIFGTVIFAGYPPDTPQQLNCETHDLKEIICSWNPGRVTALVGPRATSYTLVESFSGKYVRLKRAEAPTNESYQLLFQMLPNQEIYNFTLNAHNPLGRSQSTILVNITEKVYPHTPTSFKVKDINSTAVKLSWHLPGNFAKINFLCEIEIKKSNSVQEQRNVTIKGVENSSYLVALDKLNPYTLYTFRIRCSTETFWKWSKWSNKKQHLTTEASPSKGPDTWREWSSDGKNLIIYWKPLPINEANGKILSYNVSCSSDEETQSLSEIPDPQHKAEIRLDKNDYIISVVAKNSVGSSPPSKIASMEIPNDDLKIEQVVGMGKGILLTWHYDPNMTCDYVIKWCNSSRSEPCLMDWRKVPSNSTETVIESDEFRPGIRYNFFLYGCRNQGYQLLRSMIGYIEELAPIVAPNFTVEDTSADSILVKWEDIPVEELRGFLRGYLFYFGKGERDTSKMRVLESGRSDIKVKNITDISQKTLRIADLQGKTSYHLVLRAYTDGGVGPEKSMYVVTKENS
Kind of test: BLI (Octet RED96) control experiment, h5D8 on AHC sensors. For orientation: Biolayer interferometry detects binding as a change in optical thickness at a sensor tip.

Test [3] has as its target B1. Kind of test: cell-based or functional assay.
For test [4], the target named is T3, human IL-6 (E. coli) (human, UniProt P05231 30-212, limits assumed).
T3 construct: also called huIL-6 (E. coli)
T3 sequence (P05231 30-212 limits assumed): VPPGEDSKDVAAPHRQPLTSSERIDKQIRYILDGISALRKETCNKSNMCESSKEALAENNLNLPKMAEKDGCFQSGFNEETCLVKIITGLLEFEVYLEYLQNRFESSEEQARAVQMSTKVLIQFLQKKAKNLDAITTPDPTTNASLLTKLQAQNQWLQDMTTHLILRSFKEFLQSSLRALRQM
The test is described as follows: BLI (Octet), h5D8 amine-coupled to AR2G sensors, cytokine analyte; legend: ND = no binding.
Method: 9.0.0.26 as follows: Amine Reactive 2ndGeneration Biosensors (AR2G) were hydrated for a minimum of 15 minutes in water. […] Kinetics experiments were then performed with the following Dip and Read steps at 30° C., 1000 rpm: vi) 60 seconds Baseline in 1× kinetics buffer; vii) 180 seconds Association of appropriate serial dilutions of a cytokine in 1× kinetics buffer; viii) 300 seconds Dissociation in 1× kinetics buffer; ix) Three Regeneration/Neutralization cycles alternating between 10 mM glycine pH 2.0 and 1× kinetics buffer respectively (5 seconds in each for 3 cycles). Following regeneration, the biosensors were reused for subsequent binding analyses.

Consider B1, for which, in test [1], the binding result is reported as “binds”.

B2: h5D8 (humanized 5D8, H2L2) (antibody, V domains shown)
VH: QVQLQESGGGLVKPGGSLRLSCAASGFTFSHAWMHWVRQAPGKGLEWVGQIKAKSDDYATYYAESVKGRFTISRDDSKNTLYLQMNSLKTEDTAVYYCTCWEWDLDFWGQGTMVTVSS
VL: DIVMTQTPLSSPVTLGQPASISCRSSQSLLDSDGHTYLNWLQQRPGQPPRLLIYSVSNLESGVPDRFSGSGAGTDFTLKISRVEAEDVGVYYCMQATHAPPYTFGQGTKLEIK
notes: Humanized by CDR grafting from rat 5D8; also called G (H2L2); H5D8-1 IgG
For B2, the binding result in test [2] and in test [4] was “no binding” in each case. In addition, the “IC50 for biological inhibition (pSTAT3, U-251 cells, serum starved, endogenous LIF)” value in test [3] came out at 490 picomolar.
